Substrate: OC[C@H]1O[C@@](CO)(O[C@H]2O[C@H](CO)[C@@H](O)[C@H](O)[C@H]2O)[C@@H](O)[C@@H]1O
Assay: kinetics of glucose and fructose release; nonlinear Michaelis-Menten fit
Type: biochemical, Celerinatantimonas diazotrophica
Conditions: hydrolysis reaction; assay conditions for Cedi-LS not stated separately
Source text: kinetics of glucose and fructose release; nonlinear Michaelis-Menten fit on Cedi-LS

B1: Cedi-LS (Celerinatantimonas diazotrophica) (protein)
chain: MTLQDKVMTTAWSRADALKVHADDPTTTQPEVSISFPTMDENLFIWDTLPLRTLDGSIVSVDGWSVIFTLTAIKDPETYKNADGSYDITTDWENRHGRARIYYWYAKDSKNWILGGRVMREGVSPTTREWAGTPILLNDQGDIELYYTCVTPGATIAKVRGKITTTENAVELSEFDHVTELFSADGFYYQTEEQNQFWNFRDPSPFIDPKDGRLYMVFEGNVAGNRGSHEITTTDMGDVPPGYSDVGGARYQAGCIGLAVATDTDGNNWQLLPPLITAVGVNDQTERPHFVFKDGKYYLFTISHKYTYADGLTGPDGVYGFVSDSLFGPYQPLNGSGLVLGNPSSQPFQTYSHCVMPNGLVTSFIDSVPSTSDDDYDGDYRIGGTEAPTVQIKLEGNQTFMVKEFDYGFIPPMKNIVLQ
notes: recombinant levansucrase from the authors' earlier work; construct not described here
Km: 57 ± 2 mM
kcat: 332 ± 22 s⁻¹
kcat/Km: 5800 M⁻¹ s⁻¹
